According to US20250295802A1, “HER3 ANTIBODY-DRUG CONJUGATE AND USE THEREOF” (DUALITY BIOLOGICS (SUZHOU) CO., LTD., priority 2022, published 2025):
Several values for one entry are separate records, joined by “and”; a condition that tells them apart may be missing. Equal entries are not always repeated.

Assays:
human HER3-huFc [1] = target: T1, human HER3-huFc (human, UniProt P21860 20-643); experiment: ELISA, antigen coated
T1 construct: also called huHER3; not shown: human Fc (huFc)
Procedure: (§1) ELISA assay: human HER2-ex-huFc, human HER3-huFc, and human EGFR-his were diluted to 2 μg/mL and 50 μL/well in a 96-well plate and incubated at 4° C. overnight. The plate was washed with 0.5×PBST, then incubated with 100 μL of a blocking buffer (PBS+3% BSA) at 37° C. for 2 h, and washed with 0.5×PBST. The 3F8 antibody was diluted with the blocking buffer in a 1:3 serial gradient, added at 50 μL/well, incubated at 37° C. for 40-50 min, and then washed with 0.5×PBST. […] Prior to assay, 50 μL of luminol buffer A+B was added to each well in a 1:1 mix.
(§2) EC50 of murine 3F8 binding to human HER3, HER2, and EGFR was analyzed using GraphPad Prism 6.0.

human HER2-ex-huFc = target: T2, human HER2-ex-huFc (human, UniProt P04626 23-652); experiment: ELISA on coated antigen, luminescence readout
T2 construct: extracellular domain; 'ex' is read as extracellular domain; also called huHER2; not shown: human Fc (huFc)
Procedure: as §1
(§3) The binding affinities of murine 3F8 to human HER3, HER2 and EGFR were determined by ELISA.

human EGFR-his = target: T3, human EGFR-his (human, UniProt P00533 25-645); experiment: ELISA on coated antigen, luminescence readout
T3 construct: also called huEGFR; not shown: His tag
Procedure: as §1, §3

rat HER3 [2] = target: rat HER3 (rat, UniProt Q62799 20-641, limits assumed); experiment: ELISA on coated antigen, luminescence readout
mouse HER3 [3] = target: mouse HER3 (mouse, UniProt Q61526 20-641, limits assumed); experiment: ELISA on coated antigen, luminescence readout
[4] = target: T4, human HER2 expressed on SP2/0 cells (human, UniProt P04626 23-1255); experiment: flow cytometry (FACS) on SP2/0 cells overexpressing human HER2, PE anti-mouse secondary antibody
T4 construct: whole, on cells; also called SP2/0-HER2 cells
Procedure: (§4) FACS assay: the cultured cells were digested with 0.25% trypsin-EDTA and then centrifuged at 1500 rpm for 5 min. The cell pellets were regenerated into 5×10⁶ cells/mL using a PBS FACS solution containing 5% FBS and 0.2% ProClin300. 50 μL of the cell suspension was incubated with 100 μL of the primary antibody at a concentration of 1 μg/mL on ice for 1 h. The cells were washed twice with the FACS solution. The pellets were regenerated using 100 μL of a FACS solution containing goat anti-mouse IgG-PE (1:1000 dilution) and incubated on ice in the dark for 1 h. The cells were then washed twice and resuspended in 200 μL of the FACS solution.
(§5) Murine 3F8 was co-incubated with SP2/0 wild-type cells or cells overexpressing HER3, HER2 or EGFR. The binding strength was measured in a FACS instrument with a PE-anti-mouse secondary antibody.

[5] = target: T5, human EGFR expressed on SP2/0 cells (human, UniProt P00533 25-1210); experiment: flow cytometry (FACS) on SP2/0 cells overexpressing human EGFR, PE anti-mouse secondary antibody
T5 construct: whole, on cells; also called SP2/0-EGFR cells
Procedure: as §4, §5

cynomolgus monkey HER3 [6] = target: cynomolgus monkey HER3 (cynomolgus monkey, UniProt G7PIG5 20-643); experiment: ELISA
human HER3-huFc [7] = target: T1, human HER3-huFc; experiment: ELISA
cynomolgus monkey HER3 [8] = experiment: ELISA binding to cynomolgus monkey HER3; details: Table 2
Procedure: (§6) ELISA assay: human HER2-ex-huFc, human HER3-huFc, and human EGFR-his were diluted to 2 μg/mL and 50 μL/well in a 96-well plate and incubated at 4° C. overnight. The plate was washed with 0.5×PBST, then incubated with 100 μL of a blocking buffer (PBS+3% BSA) at 37° C. for 2 h, and washed with 0.5×PBST. The 3F8 antibody was diluted with the blocking buffer in a 1:3 serial gradient, added at 50 μL/well, incubated at 37° C. for 40-50 min, and then washed with 0.5×PBST. Goat anti-mouse IgG-HRP (Southern Biotech, 1030-05) was diluted at 1:20000 with the blocking buffer, added at 50 μL/well, incubated in the dark for 30 min, and then washed with 0.5×PBST. Prior to assay, 50 μL of luminol buffer A+B was added to each well in a 1:1 mix.
(§7) The species selectivity of murine 3F8 to human, monkey, rat and mouse HER3 was determined by ELISA.
(§8) EC50 of murine 3F8 binding to human, monkey, rat and mouse HER3 was analyzed using GraphPad Prism 6.0.

human HER2 = target: T6, human HER2 (Homo sapiens, UniProt P04626); experiment: ELISA binding to human HER2
T6 construct: human HER2-ex-huFc; human Fc (huFc)
Procedure: as §6, §3, §2

[9] = system: NRG1-induced HER3 phosphorylation; experiment: NRG1-induced HER3 phosphorylation, western blot in NCI-N87, MDA-MB-468 and MDA-MB-453; type: cell-based
Procedure: Western blot assay: the protein separated by SDS-PAGE was transferred to a nitrocellulose membrane for Western blot. The primary antibodies used were as follows: anti-HER2 (cell signaling, Catl #: 2165S), anti-HER3 (cell signaling, Catl #: 12708), anti-p-HER3 (cell signaling, Catl #: 4791), and anti-β-actin (cell signal transduction, Catl #: 4967).
HER3 phosphorylation induced by NRG1: the cells were cultured in a 6-well plate and used for an experiment when the confluency reached 80%. On the day of the experiment, the cells were washed twice with PBS, incubated for 6 h in a serum-free medium, and then induced overnight with 10 μg/mL of the antibody. To induce HER3 phosphorylation, NRG1 was added to a working concentration of 100 ng/mL 30 min before the cells were collected for Western blot.
Murine 3F8 blocked NRG1-induced HER3 phosphorylation. NCI-N87, MDA-MB-468 and MDA-MB-453 were treated with NRG1, the HER3 ligand, to induce downstream phosphorylation of HER3.
The effect of murine 3F8 in inhibiting NRG1-induced p-HER3 was determined by western blot.

rat HER3 [10] = target: rat HER3 (Rattus norvegicus, UniProt Q62799); experiment: ELISA binding to rat HER3
Procedure: as §6, §7, §8

[11] = system: cells at different HER3 surface levels; experiment: Internalization of murine 3F8 by cells at different HER3 surface levels; type: cell-based
Procedure: Murine 3F8 was rapidly taken up by cells at different HER3 surface levels. The cells at different HER3 surface levels were incubated with murine 3F8 on ice (control) or incubated at 37° C. for 1 or 4 h. The internalization fraction was determined by subtracting the 37° C. incubated cell surface signal from the ice incubated control.

HER3 = target: T7, HER3 (Homo sapiens, UniProt P21860); experiment: ELISA binding to human HER3
T7 construct: human Fc (huFc)
Procedure: as §6, §3, §2, §7, §8

[12] = system: SP2/0 wild-type cells or cells overexpressing HER2 or EGFR; experiment: FACS binding of murine 3F8 to SP2/0 wild-type, HER2 or EGFR cells; set-up: species or system human
Procedure: (§9) Cell culture: SP2/0, SP2/0-HER3, SP2/0-HER2, SP2/O-EGFR, NCI-N87, MDA-MB-468, MDA-MB-453, 7901, HT29, MCF-7, and SK-BR-3 used in the study were purchased from ATCC and cultured using the appropriate media recommended by ATCC. SP2/0-EGFR, SP2/0-HER2, and SP2/0HER3 cells stably expressing human EGFR, HER2 and HER3 were generated in house.
as §4, with “5×10^6” for “5×10⁶”
as §5

human EGFR = target: T8, human EGFR (Homo sapiens, UniProt P00533); experiment: ELISA binding to human EGFR
T8 construct: His
Procedure: as §6, §3, §2

mouse HER3 [13] = target: mouse HER3 (Mus musculus, UniProt Q61526); experiment: ELISA binding to mouse HER3
Procedure: as §6, §7, §8

[14] = system: BT474 subcutaneous xenograft model; experiment: Tumor growth in BT474 subcutaneous xenograft model; type: in vivo, mouse; details: 25 mg/kg intravenously once every two weeks for three weeks; one-way analysis of variance p<0.05
Procedure: In vivo efficacy study: the animals were maintained and used according to the IACUC guidelines. BALC/b nude mice and NPG mice, purchased from Charles River and SPF Biotech, respectively, were housed at 25° C. in a 12-h dark/light cycle with free access to food and drink. A patient-derived xenograft (PDX) model was generated by subcutaneous implantation of cryopreserved tissue fragments. Animals were initiated with drug treat when the tumor size reached 100-200 mm^3 and were euthanized when the tumor size was 1000 mm^3. The health condition was monitored daily. Tumor size and body weight were monitored and recorded every 3 days.
The anti-HER3 antibody was effective in inhibiting tumor growth in the BT474 subcutaneous xenograft model. The anti-HER3 antibody 3F8, 3D4, or 3F8+3D4 combination was injected intravenously at 25 mg/kg once every two weeks for three weeks. Tumor size was monitored every 3-4 days. Both 3F8 and 3D4 are anti-HER3 antibodies. 3F8 is a murine antibody.

SP2/0-HER3 cells = target: T9, SP2/0-HER3 cells (Homo sapiens, UniProt P21860); experiment: FACS binding of murine 3F8 to SP2/0 cells overexpressing HER3; details: PE-anti-mouse secondary antibody
T9 construct: expressed in transfected cells; host or cells: SP2/0 (mouse myeloma) stably expressing human HER3
Procedure: as §9
as §4, with “5×10^6” for “5×10⁶”
as §5

cynomolgus monkey HER3 (cynomolgus monkey, UniProt G7PIG5 20-643), sequence (G7PIG5 entry or part of it): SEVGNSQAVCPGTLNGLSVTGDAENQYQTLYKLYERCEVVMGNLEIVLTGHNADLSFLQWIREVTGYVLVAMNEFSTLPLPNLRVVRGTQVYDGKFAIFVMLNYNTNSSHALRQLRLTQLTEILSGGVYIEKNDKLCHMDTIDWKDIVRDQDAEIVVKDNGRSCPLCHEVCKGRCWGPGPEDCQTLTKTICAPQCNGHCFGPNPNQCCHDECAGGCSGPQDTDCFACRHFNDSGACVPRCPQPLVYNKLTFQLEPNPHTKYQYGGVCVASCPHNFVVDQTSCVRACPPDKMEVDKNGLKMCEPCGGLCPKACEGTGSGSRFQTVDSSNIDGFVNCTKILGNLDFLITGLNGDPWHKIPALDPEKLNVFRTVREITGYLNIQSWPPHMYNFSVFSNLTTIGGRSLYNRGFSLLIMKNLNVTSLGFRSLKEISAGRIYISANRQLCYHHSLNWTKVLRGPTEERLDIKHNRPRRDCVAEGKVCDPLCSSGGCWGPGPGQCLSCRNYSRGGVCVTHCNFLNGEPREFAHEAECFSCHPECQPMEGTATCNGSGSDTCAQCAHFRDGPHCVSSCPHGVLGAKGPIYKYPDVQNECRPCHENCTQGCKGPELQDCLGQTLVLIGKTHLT
mouse HER3 (Mus musculus, UniProt Q61526), sequence (Q61526 20-1339): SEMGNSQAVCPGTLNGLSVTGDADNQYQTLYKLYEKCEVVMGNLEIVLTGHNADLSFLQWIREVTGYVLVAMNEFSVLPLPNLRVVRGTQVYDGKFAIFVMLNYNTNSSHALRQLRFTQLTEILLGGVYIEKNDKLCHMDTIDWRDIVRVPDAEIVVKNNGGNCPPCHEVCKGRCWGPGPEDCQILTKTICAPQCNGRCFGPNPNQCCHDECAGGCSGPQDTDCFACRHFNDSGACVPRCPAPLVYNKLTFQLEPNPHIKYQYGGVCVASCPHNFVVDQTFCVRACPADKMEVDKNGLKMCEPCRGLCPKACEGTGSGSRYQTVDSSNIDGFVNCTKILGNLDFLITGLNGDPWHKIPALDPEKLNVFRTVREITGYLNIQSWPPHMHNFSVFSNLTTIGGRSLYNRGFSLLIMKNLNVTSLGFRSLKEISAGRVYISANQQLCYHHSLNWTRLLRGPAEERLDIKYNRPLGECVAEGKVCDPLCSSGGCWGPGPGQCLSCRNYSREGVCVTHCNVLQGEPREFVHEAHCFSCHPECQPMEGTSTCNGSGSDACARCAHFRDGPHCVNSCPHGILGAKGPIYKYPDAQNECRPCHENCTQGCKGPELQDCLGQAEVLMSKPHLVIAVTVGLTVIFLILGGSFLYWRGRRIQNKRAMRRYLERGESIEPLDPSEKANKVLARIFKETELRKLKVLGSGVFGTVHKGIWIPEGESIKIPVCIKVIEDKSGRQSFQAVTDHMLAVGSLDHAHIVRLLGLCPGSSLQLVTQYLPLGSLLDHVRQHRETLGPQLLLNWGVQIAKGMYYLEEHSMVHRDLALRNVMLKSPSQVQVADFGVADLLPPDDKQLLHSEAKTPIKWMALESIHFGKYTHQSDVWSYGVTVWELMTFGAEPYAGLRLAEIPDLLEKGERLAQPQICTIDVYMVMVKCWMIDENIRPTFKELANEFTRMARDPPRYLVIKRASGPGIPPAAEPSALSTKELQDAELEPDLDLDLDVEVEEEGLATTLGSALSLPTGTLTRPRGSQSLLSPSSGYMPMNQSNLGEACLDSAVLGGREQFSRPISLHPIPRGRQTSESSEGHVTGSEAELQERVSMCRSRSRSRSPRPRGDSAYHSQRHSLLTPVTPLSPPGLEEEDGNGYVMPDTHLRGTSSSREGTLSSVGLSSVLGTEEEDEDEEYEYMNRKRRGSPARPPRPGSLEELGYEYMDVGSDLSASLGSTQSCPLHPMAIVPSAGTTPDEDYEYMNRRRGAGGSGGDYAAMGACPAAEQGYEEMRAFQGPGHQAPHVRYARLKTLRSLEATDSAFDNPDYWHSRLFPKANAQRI
rat HER3 (rat, UniProt Q62799 20-641, limits assumed), sequence (Q62799 20-641 limits assumed): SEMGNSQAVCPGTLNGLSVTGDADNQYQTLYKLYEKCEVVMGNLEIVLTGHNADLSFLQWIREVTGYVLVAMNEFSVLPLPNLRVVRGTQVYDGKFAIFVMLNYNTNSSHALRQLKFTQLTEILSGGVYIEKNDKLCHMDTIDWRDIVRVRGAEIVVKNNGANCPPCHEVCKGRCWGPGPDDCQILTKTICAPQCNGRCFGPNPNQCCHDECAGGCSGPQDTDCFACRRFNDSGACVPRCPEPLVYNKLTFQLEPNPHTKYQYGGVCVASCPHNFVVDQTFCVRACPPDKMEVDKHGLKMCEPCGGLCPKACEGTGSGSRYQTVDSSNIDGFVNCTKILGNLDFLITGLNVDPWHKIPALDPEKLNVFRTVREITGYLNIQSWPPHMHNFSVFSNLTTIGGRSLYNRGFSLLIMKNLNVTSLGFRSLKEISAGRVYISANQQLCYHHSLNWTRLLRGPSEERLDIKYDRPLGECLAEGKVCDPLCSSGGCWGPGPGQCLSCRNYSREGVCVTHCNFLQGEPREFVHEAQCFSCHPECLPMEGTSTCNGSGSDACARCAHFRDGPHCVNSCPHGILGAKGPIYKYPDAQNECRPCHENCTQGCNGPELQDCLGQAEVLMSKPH
mouse HER3 (mouse, UniProt Q61526 20-641, limits assumed), sequence (Q61526 20-641 limits assumed): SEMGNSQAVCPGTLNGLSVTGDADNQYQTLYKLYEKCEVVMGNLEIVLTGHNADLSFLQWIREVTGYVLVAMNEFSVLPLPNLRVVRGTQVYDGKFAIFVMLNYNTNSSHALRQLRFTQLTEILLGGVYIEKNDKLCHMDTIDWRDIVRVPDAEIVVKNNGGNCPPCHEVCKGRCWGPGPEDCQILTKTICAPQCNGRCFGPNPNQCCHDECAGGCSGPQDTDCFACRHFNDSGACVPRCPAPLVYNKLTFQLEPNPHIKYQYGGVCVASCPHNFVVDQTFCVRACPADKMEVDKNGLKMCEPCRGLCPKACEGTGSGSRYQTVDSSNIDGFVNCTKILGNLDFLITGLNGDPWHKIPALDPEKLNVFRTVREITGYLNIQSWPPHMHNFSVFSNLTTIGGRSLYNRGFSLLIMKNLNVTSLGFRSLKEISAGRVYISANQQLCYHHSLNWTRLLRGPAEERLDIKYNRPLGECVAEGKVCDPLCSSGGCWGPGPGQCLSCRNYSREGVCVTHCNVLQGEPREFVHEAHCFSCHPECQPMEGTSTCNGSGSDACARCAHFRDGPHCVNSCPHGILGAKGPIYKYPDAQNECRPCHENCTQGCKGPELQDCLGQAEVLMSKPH
rat HER3 (Rattus norvegicus, UniProt Q62799), sequence (Q62799 20-1339): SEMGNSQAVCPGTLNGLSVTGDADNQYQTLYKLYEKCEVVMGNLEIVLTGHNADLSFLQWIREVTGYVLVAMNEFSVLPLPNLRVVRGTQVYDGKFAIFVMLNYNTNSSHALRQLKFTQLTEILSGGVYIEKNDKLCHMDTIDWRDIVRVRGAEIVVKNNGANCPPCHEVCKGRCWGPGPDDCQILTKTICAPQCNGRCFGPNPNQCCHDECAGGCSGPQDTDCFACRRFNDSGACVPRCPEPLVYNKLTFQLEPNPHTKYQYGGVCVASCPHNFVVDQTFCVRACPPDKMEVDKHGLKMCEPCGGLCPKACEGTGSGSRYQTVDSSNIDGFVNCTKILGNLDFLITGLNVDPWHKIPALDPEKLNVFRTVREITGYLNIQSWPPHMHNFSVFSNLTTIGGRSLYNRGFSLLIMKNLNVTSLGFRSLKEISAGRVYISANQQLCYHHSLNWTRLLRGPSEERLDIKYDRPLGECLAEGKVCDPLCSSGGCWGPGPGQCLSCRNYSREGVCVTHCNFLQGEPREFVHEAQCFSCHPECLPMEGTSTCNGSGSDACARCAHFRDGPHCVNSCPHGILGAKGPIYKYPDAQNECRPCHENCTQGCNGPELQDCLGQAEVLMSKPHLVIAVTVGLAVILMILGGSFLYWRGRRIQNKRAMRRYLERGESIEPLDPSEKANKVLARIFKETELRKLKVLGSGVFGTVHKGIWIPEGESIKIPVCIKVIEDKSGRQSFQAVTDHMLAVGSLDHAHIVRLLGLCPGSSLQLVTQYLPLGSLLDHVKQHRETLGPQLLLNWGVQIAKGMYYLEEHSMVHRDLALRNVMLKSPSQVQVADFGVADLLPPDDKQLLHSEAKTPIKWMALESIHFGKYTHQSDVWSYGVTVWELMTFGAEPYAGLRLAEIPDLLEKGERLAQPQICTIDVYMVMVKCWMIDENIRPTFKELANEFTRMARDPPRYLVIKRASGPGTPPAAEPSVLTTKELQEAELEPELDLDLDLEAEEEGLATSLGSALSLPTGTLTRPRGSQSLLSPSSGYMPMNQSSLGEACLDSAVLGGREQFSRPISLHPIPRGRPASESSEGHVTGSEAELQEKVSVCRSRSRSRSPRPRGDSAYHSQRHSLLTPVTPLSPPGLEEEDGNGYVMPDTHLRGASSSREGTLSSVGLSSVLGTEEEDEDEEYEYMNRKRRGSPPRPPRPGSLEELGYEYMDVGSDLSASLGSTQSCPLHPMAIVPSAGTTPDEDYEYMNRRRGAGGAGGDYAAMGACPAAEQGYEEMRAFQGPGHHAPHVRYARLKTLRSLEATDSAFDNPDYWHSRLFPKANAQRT

B1: murine 3F8 antibody (antibody, V domains shown)
VH: DVQLQESGPGLVKPSQSLSLTCSVTGYSITSAYYWNWIRQFPGDKLEWMGYISYDGRNNFNPSLKNRISITRDTSKNQFFLKLNSVTSGDTATYYCARDGDYDYFDYWGQGTTLTVSS
VL: DIQMTQTTSSLSASLGDRVTISCRASQDISNYLNWYQQKPDGTFKLLIYYTSILHSGVPSRFSGSGSGTDYSLTISNLEQEDIATYFCQQGDTLPPTFGAGTKLELK
notes: Mouse hybridoma antibody, made by hybridoma or recombinantly; also called m3F8
Human HER3-huFc [1]
  EC50: 0.11 nM and 0.0165 µg/mL
Human HER2-ex-huFc
  binding result: no binding (tested: about 10^1.2 nM (about 16 nM))
Human EGFR-his
  binding result: no binding (tested: about 10^1.2 nM (about 16 nM))
Rat HER3 [2]
  binding result: no binding (tested: about 10^1.2 nM (about 15 nM))
Mouse HER3 [3]
  binding result: no binding (tested: about 10^1.2 nM (about 15 nM))
[4]
  binding result: no binding
[5]
  binding result: no binding
Cynomolgus monkey HER3 [6]
  EC50: 0.185 nM and 0.0278 µg/mL
Human HER3-huFc [7]
  EC50: 0.164 nM and 0.0245 µg/mL

B2: murine 3F8: murine anti-HER3 antibody 3F8 from hybridoma; VL SEQ ID NO: 15, VH SEQ ID NO: 16 (antibody, V domains shown)
VH: B1 VH
VL: B1 VL
Cynomolgus monkey HER3 [8]
  EC50 (ng/mL) Cynomolgus monkey HER3: 27.825 ng/mL
Human HER2
  recognition of human HER2: did not recognize
[9]
  HER2 protein level: no effect
  total HER3 protein level: no effect
[9]; NRG1 100 ng/mL, antibody 10 μg/mL
  phosphorylation level of HER3 protein: reduced the phosphorylation level
Rat HER3 [10]
  recognition of rat HER3: did not recognize
[11]; 37° C.
  time within which most was taken up: ≤ 1 h
[11]; 37° C. for 1 or 4 h vs ice control
  internalization into the cell: rapidly internalized
HER3; ELISA
  recognition of human HER3: only recognized HER3
HER3; Table 1
  EC50 (ng/mL) huHER3: 16.50 ng/mL
  HillSlope huHER3: 1.04
HER3; Table 2
  EC50 (ng/mL) Human HER3: 24.525 ng/mL
  HillSlope Human HER3: 1.015
[12]
  binding to other cells: did not bind
Human EGFR
  recognition of human EGFR: did not recognize
Mouse HER3 [13]
  recognition of mouse HER3: did not recognize
[14]
  tumor growth: significantly inhibited the tumor growth
SP2/0-HER3 cells
  binding to SP2/0-HER3 cells: specifically bound
